Among the data in publication PMC10786891, “Massively parallel profiling of RNA-targeting CRISPR-Cas13d” are Kd values, retold here.

In general, Kd refers to the equilibrium constant for the complex coming apart.

The labels stand for the following.
B1: target 1 insC 3' of 22,insU 3' of 9 (mixed)
RNA 1: CACCCGUGCAAAAAUGCAGGGGUCUAAAACUGAGCGGAUAACCUCUCUAUGG
RNA 2: GGGAAUGGAUCCACAUCUACGAAUUCGUACCCAUAGAGAGGUUAUUCCGCUCACCGAGAUCGGAAGAGCACACGU
B2: target 1 insG 3' of 1 (mixed)
RNA 1: CACCCGUGCAAAAAUGCAGGGGUCUAAAACUGAGCGGAUAACCUCUCUAUGG
RNA 2: GGGAAUGGAUCCACAUCUACGAAUUCGUACCAUAGAGAGGUUAUCCGCUCAGCCGAGAUCGGAAGAGCACACGU
B3: target 1 insA 3' of 19,insU 3' of 18 (mixed)
RNA 1: CACCCGUGCAAAAAUGCAGGGGUCUAAAACUGAGCGGAUAACCUCUCUAUGG
RNA 2: GGGAAUGGAUCCACAUCUACGAAUUCGUACCAUAAUGAGAGGUUAUCCGCUCACCGAGAUCGGAAGAGCACACGU
B4: target 1 insC 3' of 11,insG 3' of 11 (mixed)
RNA 1: CACCCGUGCAAAAAUGCAGGGGUCUAAAACUGAGCGGAUAACCUCUCUAUGG
RNA 2: GGGAAUGGAUCCACAUCUACGAAUUCGUACCAUAGAGAGGUCGUAUCCGCUCACCGAGAUCGGAAGAGCACACGU
B5: target 1 insG 3' of 14,insU 3' of 7 (mixed)
RNA 1: CACCCGUGCAAAAAUGCAGGGGUCUAAAACUGAGCGGAUAACCUCUCUAUGG
RNA 2: GGGAAUGGAUCCACAUCUACGAAUUCGUACCAUAGAGAGGGUUAUCUCGCUCACCGAGAUCGGAAGAGCACACGU
B6: target 1 C7A,U19A (mixed)
RNA 1: CACCCGUGCAAAAAUGCAGGGGUCUAAAACUGAGCGGAUAACCUCUCUAUGG
RNA 2: GGGAAUGGAUCCACAUCUACGAAUUCGUACCAAAGAGAGGUUAUACGCUCACCGAGAUCGGAAGAGCACACGU
B7: target 1 G5C,A18U (mixed)
RNA 1: CACCCGUGCAAAAAUGCAGGGGUCUAAAACUGAGCGGAUAACCUCUCUAUGG
RNA 2: GGGAAUGGAUCCACAUCUACGAAUUCGUACCAUUGAGAGGUUAUCCCCUCACCGAGAUCGGAAGAGCACACGU
B8: target 1 U11A,A20C (mixed)
RNA 1: CACCCGUGCAAAAAUGCAGGGGUCUAAAACUGAGCGGAUAACCUCUCUAUGG
RNA 2: GGGAAUGGAUCCACAUCUACGAAUUCGUACCCUAGAGAGGAUAUCCGCUCACCGAGAUCGGAAGAGCACACGU
B9: target 1 insC 3' of 12,insC 3' of 11 (mixed)
RNA 1: CACCCGUGCAAAAAUGCAGGGGUCUAAAACUGAGCGGAUAACCUCUCUAUGG
RNA 2: GGGAAUGGAUCCACAUCUACGAAUUCGUACCAUAGAGAGGCUCUAUCCGCUCACCGAGAUCGGAAGAGCACACGU
B10: target 1 C4A,G12A (mixed)
RNA 1: CACCCGUGCAAAAAUGCAGGGGUCUAAAACUGAGCGGAUAACCUCUCUAUGG
RNA 2: GGGAAUGGAUCCACAUCUACGAAUUCGUACCAUAGAGAGAUUAUCCGAUCACCGAGAUCGGAAGAGCACACGU
B11: target 1 C7U,A14U (mixed)
RNA 1: CACCCGUGCAAAAAUGCAGGGGUCUAAAACUGAGCGGAUAACCUCUCUAUGG
RNA 2: GGGAAUGGAUCCACAUCUACGAAUUCGUACCAUAGAGUGGUUAUUCGCUCACCGAGAUCGGAAGAGCACACGU
B12: target 1 insC 3' of 14,insA 3' of 5 (mixed)
RNA 1: CACCCGUGCAAAAAUGCAGGGGUCUAAAACUGAGCGGAUAACCUCUCUAUGG
RNA 2: GGGAAUGGAUCCACAUCUACGAAUUCGUACCAUAGAGACGGUUAUCCGACUCACCGAGAUCGGAAGAGCACACGU
B13: target 1 insC 3' of 17,insG 3' of 8 (mixed)
RNA 1: CACCCGUGCAAAAAUGCAGGGGUCUAAAACUGAGCGGAUAACCUCUCUAUGG
RNA 2: GGGAAUGGAUCCACAUCUACGAAUUCGUACCAUAGCAGAGGUUAUGCCGCUCACCGAGAUCGGAAGAGCACACGU
B14: target 1 A9C,G17U (mixed)
RNA 1: CACCCGUGCAAAAAUGCAGGGGUCUAAAACUGAGCGGAUAACCUCUCUAUGG
RNA 2: GGGAAUGGAUCCACAUCUACGAAUUCGUACCAUAUAGAGGUUCUCCGCUCACCGAGAUCGGAAGAGCACACGU
B15: target 1 C4U,C6G (mixed)
RNA 1: CACCCGUGCAAAAAUGCAGGGGUCUAAAACUGAGCGGAUAACCUCUCUAUGG
RNA 2: GGGAAUGGAUCCACAUCUACGAAUUCGUACCAUAGAGAGGUUAUCGGUUCACCGAGAUCGGAAGAGCACACGU
B16: target 1 insU 3' of 20,insA 3' of 8 (mixed)
RNA 1: CACCCGUGCAAAAAUGCAGGGGUCUAAAACUGAGCGGAUAACCUCUCUAUGG
RNA 2: GGGAAUGGAUCCACAUCUACGAAUUCGUACCAUUAGAGAGGUUAUACCGCUCACCGAGAUCGGAAGAGCACACGU
B17: target 1 insG 3' of 11,insG 3' of 9 (mixed)
RNA 1: CACCCGUGCAAAAAUGCAGGGGUCUAAAACUGAGCGGAUAACCUCUCUAUGG
RNA 2: GGGAAUGGAUCCACAUCUACGAAUUCGUACCAUAGAGAGGUGUAGUCCGCUCACCGAGAUCGGAAGAGCACACGU
B18: target 1 insG 3' of 10,insU 3' of 9 (mixed)
RNA 1: CACCCGUGCAAAAAUGCAGGGGUCUAAAACUGAGCGGAUAACCUCUCUAUGG
RNA 2: GGGAAUGGAUCCACAUCUACGAAUUCGUACCAUAGAGAGGUUGAUUCCGCUCACCGAGAUCGGAAGAGCACACGU
B19: target 1 C6A,G15C (mixed)
RNA 1: CACCCGUGCAAAAAUGCAGGGGUCUAAAACUGAGCGGAUAACCUCUCUAUGG
RNA 2: GGGAAUGGAUCCACAUCUACGAAUUCGUACCAUAGACAGGUUAUCAGCUCACCGAGAUCGGAAGAGCACACGU
B20: target 1 del2,del5 (mixed)
RNA 1: CACCCGUGCAAAAAUGCAGGGGUCUAAAACUGAGCGGAUAACCUCUCUAUGG
RNA 2: GGGAAUGGAUCCACAUCUACGAAUUCGUACCAUAGAGAGGUUAUCCCUACCGAGAUCGGAAGAGCACACGU
B21: target 1 insA 3' of 13,insA 3' of 5 (mixed)
RNA 1: CACCCGUGCAAAAAUGCAGGGGUCUAAAACUGAGCGGAUAACCUCUCUAUGG
RNA 2: GGGAAUGGAUCCACAUCUACGAAUUCGUACCAUAGAGAGAGUUAUCCGACUCACCGAGAUCGGAAGAGCACACGU
B22: target 1 insG 3' of 14,insU 3' of 6 (mixed)
RNA 1: CACCCGUGCAAAAAUGCAGGGGUCUAAAACUGAGCGGAUAACCUCUCUAUGG
RNA 2: GGGAAUGGAUCCACAUCUACGAAUUCGUACCAUAGAGAGGGUUAUCCUGCUCACCGAGAUCGGAAGAGCACACGU
B23: target 1 insU 3' of 12,insA 3' of 4 (mixed)
RNA 1: CACCCGUGCAAAAAUGCAGGGGUCUAAAACUGAGCGGAUAACCUCUCUAUGG
RNA 2: GGGAAUGGAUCCACAUCUACGAAUUCGUACCAUAGAGAGGUUUAUCCGCAUCACCGAGAUCGGAAGAGCACACGU
B24: target 1 insG 3' of 14,insC 3' of 10 (mixed)
RNA 1: CACCCGUGCAAAAAUGCAGGGGUCUAAAACUGAGCGGAUAACCUCUCUAUGG
RNA 2: GGGAAUGGAUCCACAUCUACGAAUUCGUACCAUAGAGAGGGUUCAUCCGCUCACCGAGAUCGGAAGAGCACACGU
B25: target 1 insU 3' of 13,insA 3' of 10 (mixed)
RNA 1: CACCCGUGCAAAAAUGCAGGGGUCUAAAACUGAGCGGAUAACCUCUCUAUGG
RNA 2: GGGAAUGGAUCCACAUCUACGAAUUCGUACCAUAGAGAGUGUUAAUCCGCUCACCGAGAUCGGAAGAGCACACGU
B26: target 1 C6U,C22A (mixed)
RNA 1: CACCCGUGCAAAAAUGCAGGGGUCUAAAACUGAGCGGAUAACCUCUCUAUGG
RNA 2: GGGAAUGGAUCCACAUCUACGAAUUCGUAACAUAGAGAGGUUAUCUGCUCACCGAGAUCGGAAGAGCACACGU
B27: target 1 G12A,A16C (mixed)
RNA 1: CACCCGUGCAAAAAUGCAGGGGUCUAAAACUGAGCGGAUAACCUCUCUAUGG
RNA 2: GGGAAUGGAUCCACAUCUACGAAUUCGUACCAUAGCGAGAUUAUCCGCUCACCGAGAUCGGAAGAGCACACGU

This data set concerns the target T1, EsCas13d, nuclease-dead (Eubacterium siraeum, UniProt B0MS50, R295A;H300A;R849A;H854A).
T1 sequence: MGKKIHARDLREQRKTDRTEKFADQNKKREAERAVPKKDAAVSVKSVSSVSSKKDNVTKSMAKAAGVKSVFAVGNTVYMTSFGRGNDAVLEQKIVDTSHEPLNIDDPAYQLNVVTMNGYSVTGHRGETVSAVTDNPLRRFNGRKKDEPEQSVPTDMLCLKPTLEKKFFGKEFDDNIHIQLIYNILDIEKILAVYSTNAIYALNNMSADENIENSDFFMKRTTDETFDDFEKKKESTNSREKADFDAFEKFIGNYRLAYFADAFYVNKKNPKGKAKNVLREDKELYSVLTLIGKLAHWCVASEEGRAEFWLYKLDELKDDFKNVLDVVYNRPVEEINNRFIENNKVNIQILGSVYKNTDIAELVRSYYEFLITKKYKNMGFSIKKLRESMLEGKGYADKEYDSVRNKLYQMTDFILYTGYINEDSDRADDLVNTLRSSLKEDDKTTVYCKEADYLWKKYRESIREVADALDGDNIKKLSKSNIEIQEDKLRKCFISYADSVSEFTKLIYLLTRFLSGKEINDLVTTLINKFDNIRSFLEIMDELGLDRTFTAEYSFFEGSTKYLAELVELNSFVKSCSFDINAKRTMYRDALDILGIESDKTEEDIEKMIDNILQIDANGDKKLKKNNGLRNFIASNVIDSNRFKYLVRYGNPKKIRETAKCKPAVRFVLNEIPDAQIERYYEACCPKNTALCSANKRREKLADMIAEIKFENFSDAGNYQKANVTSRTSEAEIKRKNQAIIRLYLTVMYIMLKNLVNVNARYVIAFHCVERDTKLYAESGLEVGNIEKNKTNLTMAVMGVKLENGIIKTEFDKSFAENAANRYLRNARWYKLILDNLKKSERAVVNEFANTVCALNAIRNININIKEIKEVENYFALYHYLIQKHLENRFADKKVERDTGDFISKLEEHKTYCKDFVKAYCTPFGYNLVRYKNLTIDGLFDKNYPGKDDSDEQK
The experiment in a line: crRNA (strand 1, pre-loaded); Mg2+; 40 mM Tris-HCl pH 7.5, 150 mM NaCl, 6 mM MgCl2, 1 mM DTT, 0.1% Tween-20, 0.2 mg/ml BSA; 25 C; 10 min per concentration, then washed. Conditions: tags: His6-TwinStrep-SUMO cleaved; N-terminal SNAP kept (SNAP-Surface 488); label: 3' end held by stalled T7 RNA polymerase.
With B1, binding was characterised by a dissociation constant (Kd) of 30 ± 5 nM.

The molecule B2 showed a Kd of 9 ± 0.7 nM.

B3 registered a Kd of 32 ± 1.6 nM.

Turning to B4, the Kd was 42 ± 4 nM.

Consider B5, for which the affinity, expressed as Kd, was 18.5 ± 1.2 nM.

With B6, binding was put at a Kd of 48 ± 5 nM.

The molecule B7 yielded a Kd of 27 ± 4 nM.

The molecule B8 yielded a dissociation constant Kd of 80 ± 40 nM.

Consider B9, for which the affinity, expressed as Kd, was 17 ± 2.8 nM.

B10: binding was put at a Kd of 4.9 ± 0.5 nM.

Molecule B11 returned a Kd of 37 ± 5 nM.

B12: the Kd is approximately 60 nM.

The molecule B13 showed a Kd of 58 ± 16 nM.

Regarding B14, the Kd was 62 ± 23 nM.

Consider B15, for which the equilibrium dissociation constant (Kd) was 5.28 ± 0.32 nM.

The molecule B16 had a Kd of 25.3 ± 2 nM.

For the molecule B17, the Kd was determined as 17.2 ± 0.6 nM.

On to B18, for which the Kd is 18.1 ± 1.4 nM.

B19 displayed a Kd of 56 ± 6 nM.

In the case of B20, the Kd was 16.9 ± 1 nM.

The molecule B21 registered a dissociation constant Kd of 3.4 ± 0.5 nM.

B22 displayed a Kd of 39 ± 6 nM.

The molecule B23 returned a dissociation constant Kd of 6.6 ± 0.8 nM.

The molecule B24 returned a Kd of 47 ± 12 nM.

As for B25, binding was put at a Kd of 26 ± 5 nM.

In turn, B26 came in with a Kd of 15.8 ± 1.4 nM.

B27: the Kd turned out to be 36 ± 3.3 nM.
